Where no end group is shown, it is not given here.
Legend:
[1] = Solubility of peptide in buffer (observation); assay type: physicochemical
[2] = Salt-induced gelation (NaCl added to peptide solution); assay type: physicochemical; details: for final NaCl concentration for salt-induced gelation: peptides dialyzed in 30 mM buffer, pH 6.0
Protocol: For pH-induced gelation, dialyzed peptide solutions in vials were exposed to vapors of acetic acid (acid-induced gelation) or ammonium hydroxide (base-induced gelation). […] For salt-induced gelation, saturated sodium chloride solution was added into the dialyzed stock peptide solution so that the final peptide concentration in the hydrogel was 1 wt %. For mixing-induced gelation, dialyzed peptide solutions were mixed at 1:1 weight ratio such that the final total peptide concentration was 1 wt %.
The salt concentration necessary to induce gelation was quite high as indicated by FIG. 2. All peptides were dialyzed in 30 mM buffer and needed a much higher concentration to trigger hydrogelation.

[3] = molecular target: T1, SEQ ID NO 9, Acetyl-EWEAEAEAEA-amide (negatively charged module); assay: small-angle X-ray scattering of the mixed peptide pair
T1 construct: also called EAW10
T1 peptide: Ac-EWEAEAEAEA-NH2
Protocol: (§1) A small-angle x-ray scattering instrument was used for measurements at 25° C. This instrument has a slit geometry and all analyses were corrected for this. The angular dependence of the scattering of x-rays from particles in a solvent has the form:
(§2) Transmission electron microscopic (TEM) images of all hydrogels show the formation of fibrous network (FIG. 20). However, the drying step involved in the sample preparation for TEM might cause peptide fibers to aggregate further, giving rise to very heterogeneous samples that were difficult to characterize accurately in terms of fiber thickness, estimated very approximately as ~30 nm (diameter). Therefore, small angle X-ray scattering (SAXS) was used to probe the hydrated fibrous network with minimal perturbations to the samples. The measured scattering intensity (I(Q)) increased over time for each of the biomaterials, indicative of the formation of aggregates and consistent with a growing fibril networks (FIG. 18). […] The trend of the gelation kinetics is evident in FIG. 18, and also in the summary of the structural parameters that can be determined using P(r) analysis (Table 4). The kinetics of the formation of these structures is distinctive among the peptide pairs, with the SEQ ID NO 10:SEQ ID NO 11 pair reaching equilibrium most rapidly (between 15 min and 1 h) and the SEQ ID NO 9:SEQ ID NO 8 pair taking more than 11 hours before its small-angle scattering pattern becomes evident. The overall gelation kinetics monitored by SAXS follows a clear order of SEQ ID NO 10:SEQ ID NO 11>SEQ ID NO 9:SEQ ID NO 11>SEQ ID NO 10:SEQ ID NO 8>SEQ ID NO 9:SEQ ID NO 8. The order of gelation kinetics can be directly correlated to the total electrostatic and hydrophobic interactions among the oligopeptide pairs, which is highest for the SEQ ID NO 10:SEQ ID NO 11 pair and least for the SEQ ID NO 9:SEQ ID NO 8 pair. Among the two unequal chain length pairs, kinetics of SEQ ID NO 9:SEQ ID NO 11 (13 charged and 12 apolar amino acids) was faster than SEQ ID NO 10:SEQ ID NO 8 (12 charged and 13 apolar amino acids).

[4] = molecular target: T2, SEQ ID NO 10, Acetyl-WEAEAEAEAEAEAEA-amide (negatively charged module); assay: as above
T2 construct: Synthetic designed 15-mer
T2 peptide: Ac-WEAEAEAEAEAEAEA-NH2
Protocol: as §1, §2

SEQ ID NO 5 = molecular target: T3, SEQ ID NO 5; assay: mixing-induced co-assembly into hydrogel, dynamic rheometry
T3 construct: All peptides were made on Rink Amide resin; also called member of the serine pair
T3 peptide: EWESESESES-NH2

[5] = molecular target: T4, SEQ ID NO 1, Acetyl-EWEVEVEVEV-amide (negatively charged module); assay: as above
T4 construct: Synthetic designed decapeptide; also called Acetyl-EW(EV)4-amide; negatively-charged peptide module
T4 peptide: Ac-EWEVEVEVEV-NH2

With “Ac-WKVKVKVKVK-NH2 [SEQ ID NO 3, Acetyl-WKVKVKVKVK-amide]” the “solubility at pH 7” value [1] was “did not appear to be high enough”.

For “Acetyl-EWEVEVEVEV-amide (Ac-EWEVEVEVEV-NH2) [SEQ ID NO 1, negatively charged peptide module]”, the “state of sample at 1.5 M NaCl” value ([2]; 1.5 M salt concentration) was “still a viscous solution” and the “final NaCl concentration for salt-induced gelation” value [2] was 3 M.

For “Acetyl-KWKVKVKVKVKVKVK-amide (Ac-KWKVKVKVKVKVKVK-NH2) [SEQ ID NO 2, positively charged peptide module]”, the “final NaCl concentration for salt-induced gelation” value [2] was 1.5 M.

Ac-WKAKAKAKAK-NH2 (also called KAW10) [SEQ ID NO 8, Acetyl-WKAKAKAKAK-amide (positively charged module)]: binds [3]; binds [4].

B1: SEQ ID NO 4 (peptide)
peptide: WKSKSKSKSK-NH2
notes: All peptides were made on Rink Amide resin; also called member of the serine pair
B1: binds (SEQ ID NO 5).

B2: SEQ ID NO 3, Acetyl-WKVKVKVKVK-amide (positively charged module) (peptide)
peptide: Ac-WKVKVKVKVK-NH2
notes: Synthetic designed decapeptide; also called Acetyl-WK(VK)4-amide; positively-charged peptide module
B2: binds [5].

Ac-KWKVKVKVKVKVKVK-NH2 (Synthetic designed 15-mer) [SEQ ID NO 2, Acetyl-KWKVKVKVKVKVKVK-amide (positively charged module)]: binds [5].

Ac-KWKAKAKAKAKAKAK-NH2 (Synthetic designed 15-mer) [SEQ ID NO 11, Acetyl-KWKAKAKAKAKAKAK-amide (positively charged module)]: binds [3]; binds [4].

Source: patent US9364412B2, “Electrostatically controlled hydrogels” (University of Utah Research Foundation, priority 2005, dated 2016)
